Laboratory results taken from patent publication US8992886B2, “Cyclic peptide analogues for non-invasive imaging of pancreatic beta-cells” (Board of Regents, the University of Texas System, priority 2009, dated 2015).
Bridge positions count the residues as written; N and C are the ends. Square brackets hold non-standard residues; d marks the D form. Peptide text beside a SMILES is read from it. * marks the point of attachment. X1 = O=C(O)CN1CCN(CC(=O)O)CCN(CC(=O)NCCN2C(=O)CC(*)C2=O)CCN(CC(=O)O)CC1; Ahx = NCCCCCC(=O)O

Columns and labels:
GLP-1R in pancreas = molecular target: T1, GLP-1R in pancreas (Mus musculus, UniProt O35659); assay: Dynamic PET/CT imaging of ^64Cu-labeled peptides in normal mice; conditions: mouse, in vivo
T1 sequence (O35659 22-463): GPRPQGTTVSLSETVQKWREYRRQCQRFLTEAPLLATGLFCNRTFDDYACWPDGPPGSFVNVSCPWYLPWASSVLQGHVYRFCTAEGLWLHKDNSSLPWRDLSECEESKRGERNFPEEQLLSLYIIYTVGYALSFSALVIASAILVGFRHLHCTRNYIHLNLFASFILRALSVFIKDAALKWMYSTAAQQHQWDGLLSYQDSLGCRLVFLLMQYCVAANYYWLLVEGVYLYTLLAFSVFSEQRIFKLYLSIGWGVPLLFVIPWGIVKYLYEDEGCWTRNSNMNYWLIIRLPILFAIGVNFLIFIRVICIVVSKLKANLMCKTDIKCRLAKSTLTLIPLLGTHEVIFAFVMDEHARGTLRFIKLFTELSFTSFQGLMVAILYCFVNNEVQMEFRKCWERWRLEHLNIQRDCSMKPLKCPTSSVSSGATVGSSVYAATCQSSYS
Experimental: Dynamic PET/CT scans were performed on a Siemens Inveon PET-CT multimodality system using normal male BABL/c mice (n=3 per peptide). Post-PET biodistribution was performed to verify the imaging findings.
In addition, D-Ala^8 was also introduced to prevent the degradation by DPP-IV.
FIG. 9 are graphs that show a comparison of contrast in pancreatic, liver and kidney microPET scans. […] Quantitative analysis based on microPET/CT 0-60 min dynamic scans, animal model: Normal BABL/c mice at 6-8 wks.

in vivo = assay: in vivo; parameters: species or system Sprague-Dawley rats; conditions: Sprague-Dawley, rat, iv, total radioactivity
Experimental: Given this encouraging in vitro result, the tissue distribution of both conjugates in normal Sprague-Dawley rats was examined. […] The radiolabeled compounds were diluted with saline and be injected into rats (n=4 at each time point) via the tail vein. The animal number at each time point was chosen for statistical analysis. […] At the selected post-injection time points, animals were sacrificed, and organs of interest removed, weighed, and counted. The percent injected dose per gram (% ID/g) and percent injected dose per organ (% ID/organ) was calculated by comparison to a weighed, counted standard. Pharmacokinetic parameters were estimated by using either one- or two-compartment model.

GLP-1R = GLP-1R (Homo sapiens, UniProt P43220); assay: cAMP accumulation in HEK293 cells stably expressing GLP-1R-GFP; format: cell-based; parameters: GFP; expressed in transfected cells; host or cells: HEK293
Sequence of GLP-1R (P43220 24-463): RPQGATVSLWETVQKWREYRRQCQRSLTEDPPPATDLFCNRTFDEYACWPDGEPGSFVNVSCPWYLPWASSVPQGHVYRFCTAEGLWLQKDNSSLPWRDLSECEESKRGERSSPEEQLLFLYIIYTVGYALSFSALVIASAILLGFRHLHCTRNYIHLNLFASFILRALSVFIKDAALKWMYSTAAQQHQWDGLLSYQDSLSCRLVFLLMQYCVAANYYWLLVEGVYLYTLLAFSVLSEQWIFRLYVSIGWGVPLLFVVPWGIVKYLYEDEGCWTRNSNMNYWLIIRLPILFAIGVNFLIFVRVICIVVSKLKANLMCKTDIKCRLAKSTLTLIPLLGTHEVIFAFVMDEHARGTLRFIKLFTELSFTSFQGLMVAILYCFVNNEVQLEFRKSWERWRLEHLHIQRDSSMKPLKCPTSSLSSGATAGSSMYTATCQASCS
From the text: In all cases, reactions were stopped with 1.2 M trichloroacetic acid and cAMP was isolated by the two column chromatographic method.

With `CC[C@H](C)[C@H](NC(=O)[C@H](Cc1ccccc1)NC(=O)[C@H](CCC(=O)O)NC(=O)[C@H](CCCCN)NC(=O)[C@H](C)NC(=O)[C@H](C)NC(=O)[C@H](CCC(N)=O)NC(=O)CNC(=O)[C@H](CCC(=O)O)NC(=O)[C@H](CC(C)C)NC(=O)[C@H](Cc1ccc(O)cc1)NC(=O)[C@H](CO)NC(=O)[C@H](CO)NC(=O)[C@@H](NC(=O)[C@H](CC(=O)O)NC(=O)[C@H](CO)NC(=O)[C@@H](NC(=O)[C@H](Cc1ccccc1)NC(=O)[C@@H](NC(=O)CNC(=O)[C@H](CCC(=O)O)NC(=O)[C@@H](C)NC(=O)[C@@H](N)Cc1c[nH]cn1)[C@@H](C)O)[C@@H](C)O)C(C)C)C(=O)N[C@@H](C)C(=O)N[C@@H](Cc1c[nH]c2ccccc12)C(=O)N[C@@H](CC(C)C)C(=O)N[C@H](C(=O)N[C@@H](CCCCN)C(=O)NCC(=O)N[C@@H](CCCNC(=N)N)C(=O)NCCCCCC(=O)N[C@@H](CSC1CC(=O)N(CCNC(=O)CN2CCN(CC(=O)O)CCN(CC(=O)O)CCN(CC(=O)O)CC2)C1=O)C(N)=O)C(C)C` (stereo partly drawn) (64Cu complex, metal not drawn) [D-GLP-1, [D-Ala^8]GLP-1-Ahx-Cys] the “clearance from the pancreas” value (GLP-1R in pancreas) was less than 10 min, the tissue uptake at 20 min (in vivo; % ID/g blood) was 0.91 ± 0.39 %ID/g and the tissue uptake at 1 h (in vivo; % ID/g blood) was 0.41 ± 0.07 %ID/g. For the same compound, the tissue uptake at 4 h (in vivo; % ID/g blood) was 0.45 ± 0.02 %ID/g, the tissue uptake at 24 h (in vivo; % ID/g blood) was 0.14 ± 0.08 %ID/g and the tissue uptake at 20 min (in vivo; % ID/g fat) was 0.44 ± 0.6 %ID/g. The tissue uptake at 1 h (in vivo; % ID/g fat) was 0.28 ± 0.4 %ID/g, the tissue uptake at 4 h (in vivo; % ID/g fat) was 0.96 ± 0.88 %ID/g and the tissue uptake at 24 h (in vivo; % ID/g fat) was 0.78 ± 0.14 %ID/g. It also gave a tissue uptake at 20 min (in vivo; % ID/g heart) of 0.64 ± 0.16 %ID/g, a tissue uptake at 1 h (in vivo; % ID/g heart) of 0.46 ± 0.21 %ID/g and a tissue uptake at 4 h (in vivo; % ID/g heart) of 0.15 ± 0.09 %ID/g. For the same compound, the tissue uptake at 24 h (in vivo; % ID/g heart) was 0.04 ± 0.05 %ID/g, the tissue uptake at 20 min (in vivo; % ID/g kidney) was 19.6 ± 0.91 %ID/g and the tissue uptake at 1 h (in vivo; % ID/g kidney) was 28.2 ± 5.83 %ID/g. For the same compound, the tissue uptake at 4 h (in vivo; % ID/g kidney) was 30.7 ± 9.53 %ID/g, the tissue uptake at 24 h (in vivo; % ID/g kidney) was 46.1 ± 10.9 %ID/g and the tissue uptake at 20 min (in vivo; % ID/g large int) was 0.45 ± 0.2 %ID/g. The tissue uptake at 1 h (in vivo; % ID/g large int) was 0.67 ± 0.7 %ID/g, the tissue uptake at 4 h (in vivo; % ID/g large int) was 0.77 ± 0.18 %ID/g and the tissue uptake at 24 h (in vivo; % ID/g large int) was 2.01 ± 0.02 %ID/g. For the same compound, the tissue uptake at 20 min (in vivo; % ID/g liver) was 2.69 ± 1.16 %ID/g, the tissue uptake at 1 h (in vivo; % ID/g liver) was 1.17 ± 0.45 %ID/g and the tissue uptake at 4 h (in vivo; % ID/g liver) was 1.56 ± 0.14 %ID/g. It also gave a tissue uptake at 24 h (in vivo; % ID/g liver) of 2.26 ± 0.16 %ID/g, a tissue uptake at 20 min (in vivo; % ID/g lung) of 4.03 ± 1.64 %ID/g and a tissue uptake at 1 h (in vivo; % ID/g lung) of 0.91 ± 0.12 %ID/g. For the same compound, the tissue uptake at 4 h (in vivo; % ID/g lung) was 0.77 ± 0.18 %ID/g, the tissue uptake at 24 h (in vivo; % ID/g lung) was 1.21 ± 0.3 %ID/g and the tissue uptake at 20 min (in vivo; % ID/g muscle) was 0.3 ± 0.15 %ID/g. The tissue uptake at 1 h (in vivo; % ID/g muscle) was 0.63 ± 0.05 %ID/g, the tissue uptake at 4 h (in vivo; % ID/g muscle) was 0.11 ± 0.13 %ID/g and the tissue uptake at 24 h (in vivo; % ID/g muscle) was 0.39 ± 0.29 %ID/g. It also gave a tissue uptake at 20 min (in vivo; % ID/g pancreas) of 3.58 ± 0.56 %ID/g, a tissue uptake at 1 h (in vivo; % ID/g pancreas) of 2.19 ± 0.98 %ID/g and a tissue uptake at 4 h (in vivo; % ID/g pancreas) of 1.18 ± 0.12 %ID/g. It also gave a tissue uptake at 24 h (in vivo; % ID/g pancreas) of 0.99 ± 0.05 %ID/g, a tissue uptake at 20 min (in vivo; % ID/g small int) of 1.07 ± 0.73 %ID/g and a tissue uptake at 1 h (in vivo; % ID/g small int) of 1.02 ± 0.75 %ID/g. The tissue uptake at 4 h (in vivo; % ID/g small int) was 0.5 ± 0.25 %ID/g, the tissue uptake at 24 h (in vivo; % ID/g small int) was 0.91 ± 0.31 %ID/g and the tissue uptake at 20 min (in vivo; % ID/g spleen) was 0.22 ± 0.05 %ID/g. For the same compound, the tissue uptake at 1 h (in vivo; % ID/g spleen) was 0.23 ± 0.05 %ID/g, the tissue uptake at 4 h (in vivo; % ID/g spleen) was 0.26 ± 0.2 %ID/g and the tissue uptake at 24 h (in vivo; % ID/g spleen) was 0.52 ± 0.18 %ID/g. The tissue uptake at 20 min (in vivo; % ID/g stomach) was 1.02 ± 0.51 %ID/g, the tissue uptake at 1 h (in vivo; % ID/g stomach) was 0.49 ± 0.31 %ID/g and the tissue uptake at 4 h (in vivo; % ID/g stomach) was 0.23 ± 0.07 %ID/g. For the same compound, the tissue uptake at 24 h (in vivo; % ID/g stomach) was 0.25 ± 0.17 %ID/g.

`CC[C@H](C)[C@H](NC(=O)[C@H](Cc1ccccc1)NC(=O)[C@H](CCC(=O)O)NC(=O)[C@H](CCCCN)NC(=O)[C@H](C)NC(=O)[C@H](C)NC(=O)[C@H](CCC(N)=O)NC(=O)CNC(=O)[C@H](CCC(=O)O)NC(=O)[C@@H]1CCCCNC(=O)CC[C@H](NC(=O)[C@H](CC(=O)O)NC(=O)[C@H](CO)NC(=O)[C@@H](NC(=O)[C@H](Cc2ccccc2)NC(=O)[C@@H](NC(=O)CNC(=O)[C@H](CCC(=O)O)NC(=O)[C@@H](C)NC(=O)[C@@H](N)Cc2c[nH]cn2)[C@@H](C)O)[C@@H](C)O)C(=O)N[C@@H](CO)C(=O)N[C@@H](CO)C(=O)N[C@@H](Cc2ccc(O)cc2)C(=O)N1)C(=O)N[C@H]1CCC(=O)NCCCC[C@@H](C(=O)NCC(=O)N[C@@H](CCCNC(=N)N)C(=O)NCCCCCC(=O)N[C@@H](CSC2CC(=O)N(CCNC(=O)CN3CCN(CC(=O)O)CCN(CC(=O)O)CCN(CC(=O)O)CC3)C2=O)C(N)=O)NC(=O)[C@H](C(C)C)NC(=O)[C@H](CC(C)C)NC(=O)[C@H](Cc2c[nH]c3ccccc23)NC1=O` (stereo partly drawn) [EM2196, HXEGTFTSDESSYKEGQAAKEFIEWLVKG R, wherein X is D-Ala] (H-H[dA]EGTFTSDESSYKEGQAAKEFIEWLVKGR[Ahx]C(X1)-NH2; lactam 10-14, 24-28) showed an EC50 (GLP-1R) of roughly 1 nM.
